These results are taken from patent US20170362327A1 (GLENMARK PHARMACEUTICALS S A, published 2017).

Where a chain is given by its changes, count along the chain named. Names and notes keep the numbering of the source.

First the molecules themselves.
B1: GBR VH5(K3Q,V37A)VL1 (antibody, human IgG1, kappa)
heavy: not shown
light: EIVLTQSPATLSLSPGERATLSCSASSSVSYMHWYQQKPGQAPRLLIYTTSNLASGIPARFSGSGSGTDFTLTISSLEPEDFAVYYCHQWSSYPWTFGQGTKLEIKRTVAAPSVFIFPPSDEQLKSGTASVVCLLNNFYPREAKVQWKVDNALQSGNSQESVTEQDSKDSTYSLSSTLTLSKADYEKHKVYACEVTHQGLSSPVTKSFNRGEC
notes: IGHG1, kappa
B2: GBR VH5(V37A)VL1 (antibody, human IgG1, kappa)
heavy: not shown
light: B1 light
notes: IGHG1, kappa; also called GBR VH5(V37A)VL1 IGHG1 antibody; GBR VH5 (V37A)VL1 antibody
B3: MNAC13 mouse antibody (antibody, mouse IgG1, kappa, V domains shown)
VH: EVKLVESGGGLVQPGGSLKLSCAASGFTFSTYTMSWARQTPEKRLEWVAYISKGGGSTYYPDTVKGRFTISRDNAKNTLYLQMSSLKSEDTALYYCARGAMYGNDFFYPMDYWGQGTSVTVSS
VL: QIVLTQSPAIMSASLGEEITLTCSASSSVSYMHWYQQKSGTSPKLLIYTTSNLASGVPSRFSGSGSGTFYSLTISSVEAEDAADYYCHQWSSYPWTFGGGTKLEIKA
notes: Mouse monoclonal anti-TrkA antibody; also called parental murine antibody
B4: BXhVH1VL1 (antibody, human IgG1, kappa, V domains shown)
VH: EVQLLESGGGLVQPGGSLRLSCAASGFTFSTYTMSWVRQAPGKGLEWVSYISKGGGSTYYPDTVKGRFTISRDNSKNTLYLQMNSLRAEDTAVYYCAKGAMYGNDFFYPMDYWGQGTTVTVSS
VL: EIVLTQSPATLSLSPGERATLSCSASSSVSYMHWYQQKPGQAPRLLIYTTSNLASGIPARFSGSGSGTDFTLTISSLEPEDFAVYYCHQWSSYPWTFGQGTKLEIKR
notes: IGHG1, kappa
B5: GBR VH3(V37A)VL1 (antibody, human IgG1, kappa, V domains shown)
VH: B4 VH with V37A, A40T, G44R, S49A
VL: B4 VL
notes: IGHG1, kappa
B6: BXhVH3VL1 (antibody, human IgG1, kappa)
heavy: not shown
light: B1 light
notes: IGHG1, kappa
B7: BXhVH5VL3 (antibody, human IgG1, kappa, V domains shown)
VH: B4 VH with Q3K, A40T, G44R, S49A, K98R
VL: B4 VL with E1Q, A42S, A59S, D69F, F70Y, Q99G
B8: BXhVH3VL3 (antibody, human IgG1, kappa, V domains shown)
VH: B4 VH with A40T, G44R, S49A
VL: B4 VL with E1Q, A42S, A59S, D69F, F70Y, Q99G
notes: IGHG1, kappa
B9: GBR VH5(V37A)VL3 (antibody, human IgG1, kappa, V domains shown)
VH: B4 VH with Q3K, V37A, A40T, G44R, S49A, K98R
VL: B4 VL with E1Q, A42S, A59S, D69F, F70Y, Q99G
notes: IGHG1, kappa
B10: GBR VH3(V37A)VL3 (antibody, human IgG1, kappa, V domains shown)
VH: B4 VH with V37A, A40T, G44R, S49A
VL: B4 VL with E1Q, A42S, A59S, D69F, F70Y, Q99G
notes: IGHG1, kappa
B11: GBR VH1(V37A)VL1 (antibody, human IgG1, kappa, V domains shown)
VH: B4 VH with V37A
VL: B4 VL
notes: IGHG1, kappa
B12: GBR VH5(V37A)VL1 IGHG4 S228P (antibody, human IgG4 S228P, kappa)
heavy: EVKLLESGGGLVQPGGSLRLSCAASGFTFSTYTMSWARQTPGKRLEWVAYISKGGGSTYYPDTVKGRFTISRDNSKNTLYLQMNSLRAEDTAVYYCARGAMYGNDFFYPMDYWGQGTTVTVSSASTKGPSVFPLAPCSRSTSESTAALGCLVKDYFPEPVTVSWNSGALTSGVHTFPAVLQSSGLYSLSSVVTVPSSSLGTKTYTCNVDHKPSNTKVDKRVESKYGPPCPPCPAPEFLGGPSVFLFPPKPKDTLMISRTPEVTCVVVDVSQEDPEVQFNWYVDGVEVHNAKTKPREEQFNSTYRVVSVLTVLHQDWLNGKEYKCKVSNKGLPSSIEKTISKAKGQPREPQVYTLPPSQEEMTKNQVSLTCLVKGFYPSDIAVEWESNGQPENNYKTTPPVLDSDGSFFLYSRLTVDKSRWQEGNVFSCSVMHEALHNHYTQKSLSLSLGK
light: B1 light
notes: IGHG4 isotype with S228P (EU) hinge substitution, kappa
B13: GBR VH5(K3Q,V37A)VL1 IGHG4 S228P (antibody, human IgG4 S228P, kappa)
heavy: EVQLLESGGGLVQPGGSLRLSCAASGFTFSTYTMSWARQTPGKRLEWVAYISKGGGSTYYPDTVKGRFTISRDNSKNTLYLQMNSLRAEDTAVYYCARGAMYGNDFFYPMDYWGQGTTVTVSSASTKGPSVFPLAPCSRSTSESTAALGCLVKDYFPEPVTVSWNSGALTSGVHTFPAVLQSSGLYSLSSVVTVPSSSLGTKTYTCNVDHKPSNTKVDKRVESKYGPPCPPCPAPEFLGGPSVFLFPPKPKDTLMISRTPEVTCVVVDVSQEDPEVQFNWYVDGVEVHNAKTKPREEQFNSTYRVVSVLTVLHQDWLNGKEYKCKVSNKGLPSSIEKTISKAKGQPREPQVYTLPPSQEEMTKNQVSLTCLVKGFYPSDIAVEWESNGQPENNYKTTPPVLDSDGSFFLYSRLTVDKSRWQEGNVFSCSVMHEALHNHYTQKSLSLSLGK
light: B1 light
notes: as for B12
B14: GBR VH5(R94K)VL1 (antibody, human IgG1, kappa)
heavy: not shown
light: B1 light
notes: IGHG1, kappa
B15: GBR VH5(K3Q, V37A, R44G)VL1 (antibody, human IgG1, kappa, V domains shown)
VH: B4 VH with V37A, A40T, S49A, K98R
VL: B4 VL
notes: IGHG1, kappa
B16: GBR VH5(K3Q, V37A, T40A, P60A, T62S)VL1 (antibody, human IgG1, kappa, V domains shown)
VH: B4 VH with V37A, G44R, S49A, P61A, T63S, K98R
VL: B4 VL
notes: IGHG1, kappa

The target in the first test is T1, monovalent human TrkA extracellular region (human, UniProt P04629 33-423).
T1 construct: also called recombinant monovalent human TrkA extracellular domain
T1 sequence (P04629 33-423): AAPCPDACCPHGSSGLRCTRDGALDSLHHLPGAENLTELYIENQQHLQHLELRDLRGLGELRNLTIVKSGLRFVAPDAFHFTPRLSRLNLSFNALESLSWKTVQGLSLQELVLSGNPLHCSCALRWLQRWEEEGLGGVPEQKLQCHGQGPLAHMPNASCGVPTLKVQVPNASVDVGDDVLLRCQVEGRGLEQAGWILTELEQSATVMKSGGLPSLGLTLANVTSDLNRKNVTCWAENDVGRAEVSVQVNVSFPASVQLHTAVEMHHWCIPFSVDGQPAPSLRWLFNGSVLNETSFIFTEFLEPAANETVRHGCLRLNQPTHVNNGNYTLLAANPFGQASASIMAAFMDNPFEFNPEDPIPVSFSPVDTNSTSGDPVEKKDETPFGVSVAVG
In words: SPR, against BXhVH5VL1. As to the method:
(§1) SPR analysis was used to measure the association and dissociation rate constants for the binding kinetics of the different antibodies (mouse and humanized antibodies). The binding kinetics of the mouse antibody and humanized variants were measured on a BIACORE 2000 instrument (GE Healthcare Europe GmbH, Glattbrugg, Switzerland) at room temperature, and analyzed with the BiaEvaluation software (v4.1, GE Healthcare Europe GmbH, Glattbrugg, Switzerland).
(§2) Antibodies were immobilized via capture of their Fc portion to allow for correct orientation on the sensor chip surface. A monoclonal mouse anti-human IgG (Fc) antibody sensor chip was used to capture all humanized antibodies regardless of their isotypes (Human Antibody Capture Kit, catalogue number BR-1008-39, GE Healthcare Europe GmbH), and a polyclonal rabbit anti-mouse immunoglobulin sensor chip was used to capture the MNAC13 mouse antibody (Mouse Antibody Capture Kit, catalogue number BR-1008-38, GE Healthcare Europe GmbH).
(§3) Data (sensorgram: fc2-fc1) were fitted with a 1:1 Langmuir model with mass transfer in spite of having little mass transfer limitation in mass transfer tests. To account for the experimental variations in captured antibody at the beginning of each measurement, the Rmax value was set to local in all fits. Dissociation times were of at least 350 seconds. Measurements were performed in triplicate, and included zero-concentration samples for referencing. Both Chi2 and residual values were used to evaluate the quality of a fit between the experimental data and individual binding models.
Background: In SPR one partner is held on a chip, and binding of the other changes the refractive index at the surface.
As for B1, the “fold decrease of KD against BXhVH5VL1” value came to 2.7 fold.
For the molecule B2, the “fold decrease of KD against BXhVH5VL1” value was 2.5 fold and the “fold increase in affinity against BXhVH5VL1” value is 2.5 fold.

In a further test the target is T1, monovalent human TrkA extracellular …. The experiment in a line: SPR (BIAcore 2000), antibody captured via anti-mouse immunoglobulin, monovalent TrkA extracellular region as analyte. As to the method: as §1, §2, §3
As to B3, binding was characterised by a dissociation constant (Kd) of 18 nM; the koff – broadly, the rate constant with which the complex falls apart – was 0.00109 s⁻¹; the kon (usually a measure of how fast the partners come together) came out at 60200 M⁻¹ s⁻¹.

The target is the same in another test. The experiment in a line: SPR (BIAcore 2000), antibody captured via Fc, monovalent TrkA extracellular region as analyte. As to the method:
as §1, §2, §3
On to B4, for which the Kd (usually the concentration at which binding is half-saturated) was 426 nM, the koff was found to be 0.0133 s⁻¹ and the kon is 31300 M⁻¹ s⁻¹.
On the same counts, the results for B5 are 123 nM, 0.00471 s⁻¹ and 38200 M⁻¹ s⁻¹.
As to B6, the Kd was 133 nM, the koff amounted to 0.00619 s⁻¹ and the kon came to 46500 M⁻¹ s⁻¹.
The matching figures for B7: 63 nM, 0.00395 s⁻¹ and 62300 M⁻¹ s⁻¹.
For the molecule B1, the Kd worked out at 15.4 nM, the koff was determined as 0.00262 s⁻¹ and the kon is 170000 M⁻¹ s⁻¹.
As for B2, the affinity, expressed as Kd, was 16 nM; the off-rate (koff) was found to be 0.00225 s⁻¹; the kon amounted to 140000 M⁻¹ s⁻¹.
In turn, B8 had a Kd of 134 nM, a koff of 0.00459 s⁻¹ and an on-rate (kon) of 31400 M⁻¹ s⁻¹.
Regarding B9, binding was put at a Kd of 28 nM, the koff came out at 0.00205 s⁻¹ and the on-rate constant (kon) amounted to 74500 M⁻¹ s⁻¹.
As for B10, the Kd was determined as 95 nM, the koff amounted to 0.00295 s⁻¹ and the association rate constant (kon) worked out at 31000 M⁻¹ s⁻¹.
With B11, the Kd is 338 nM, the koff came out at 0.00663 s⁻¹ and the kon was 19600 M⁻¹ s⁻¹.

The next test shares this target. The description is as above. This is another data set of the same source. As to the method:
as §1, §2, §3
Molecule B12 returned a Kd of 15 nM.
B13 displayed a Kd of 15 nM.
As to B14, the Kd worked out at 52 nM.
The molecule B15 returned a Kd of 20 nM.
Still for that read-out and setting: in the case of B1 it was 15.4 nM.
On to B2, for which binding was characterised by a dissociation constant (Kd) of 16 nM.
On the same count and under the same terms, the result for B16 reads 48 nM.
